Experimental data as given in patent US20260217819A1 (HANSOH BIO, published 2026).
Numbering of substitutions follows the chain as printed.

B1: anti-CDH17 recombinant antibody 14B12 (human IgG1) (antibody, V domains shown)
VH: QVQLQESGPGLVKPSETLSLTCTVSGGSINTYYRSWIRQPPGKGLEWIGYIYYSGNTNYNPSLKSRVTISADTSKNQFSLNLISVTAADTAMYYCARAQYGEEAFDIWGQGTLVTVSS
VL: DIQMTQSPSSLSASVGDRVTITCRASQSITTYLNWYQQKPGKAPQLLIFAASRLQTGVPSRFSGSGSGTDFTLTISSLLPGDFATYYCQQSYNTPPTFGGGTKVEIKR
B2: anti-CDH17 recombinant antibody 10E11 (human IgG1) (antibody, V domains shown)
VH: EVQLVQSGTEVKKPGESLKISCKDSGYRFSSYWIGWVRQMPGKGLEWMGIIYPGDSDTRYSPSFQGQVTISADKSISTAYLQWRSLKASDTAMYYCARRGWVNYFDYWGQGTLVTVSS
VL: DIQMTQSPSSVSASVGDRVTITCRASQGISNWLGWYQQKPGKAPKLLIYAASSLQSGVPSRFSGSGSGTDFTLTISSLQPEDFATYYCQQANSFPLTFGGGTKVEIKR
B3: anti-CDH17 recombinant antibody 13C7 (human IgG1) (antibody, V domains shown)
VH: QITLKESGPTLVKPTQTLTLTCTFSGFSLSTSGVGVGWIRQPPGKALEWLALIYWNDDKRYRPSLKNRLTITKDTSKNQVVLTMTNMDPVDTATYYCTHYGVTAPFYNWFDPWGQGTLVTVSS
VL: DIQMTQSPSSLSASVGDRVTITCRASQSITSYLNWYQQKPGKAPKLLIYAASSLQSGVPSRFSGSGSGTDFTLTISSLQPEDFATYYCQRSYSTLTFGGGTKVEIKR
B4: anti-CDH17 recombinant antibody 19C7 (human IgG1) (antibody, V domains shown)
VH: B3 VH with F27I, S32G, A51S, R62S, N67S, T75S, T98A, Y100S, V102L, T103A
VL: B3 VL with T30S, S31N, Q38L, K42N, Y49F, Y87F
B5: anti-CDH17 recombinant antibody 4F9 (human IgG1) (antibody, V domains shown)
VH: QVQLQESGPGLVKPSGTLSLTCAVSGGSISSSNWWSWVRQPPGKGLEWIGEIYHSGSTSYNPSLKSRVTISVDKSKNQFSLKLSSVTAADTAVYYCARNDWGFPLDCWGQGTLVTVSS
VL: DIQMTQSPSSLSASVGDRVTITCRASQSISSYLNWYQQKPGKAPKLLIYAASSLQSGVPSRFSGSGSGTHFTLTISSLQPEDFATYYCQQSHNIPITFGQGTRLEIKR
B6: anti-CDH17 recombinant antibody 2F9 (human IgG1) (antibody, V domains shown)
VH: EVQLVESGGGVVRPGGSLRLSCAASGFTFDDYGMSWVRQAPGKGLEWVSGLSWNGGNTYYADSVKGRFTISRDNAKNSLYLQMNSLRAEDTALYYCARGSRYNWNYDAFDIWGQGTLVTVSS
VL: DIQMTQSPSSLSASIGDRVTITCRASQGIRNALGWYQQKPGKAPKRLIYAASNLQSGVPSRFSGSGSGTEFTLTISSLQPEDFATYYCLQHNSYPFTFGPGTKVEIKR
B7: anti-CDH17 recombinant antibody 9E2 (human IgG1) (antibody, V domains shown)
VH: B6 VH with D31N, L51I, S52N, N57S, K65R, N105S
VL: B6 VL with I15V, I29V, N53S
B8: anti-CDH17 recombinant antibody 15A4 (human IgG1) (antibody, V domains shown)
VH: QVQLVESGGGVVQPGRSLRLSCAASGFNFSSYGMHWVRQAPGKGLEWVAFVWYDGSNQNYADSVKGRFTISRDNSNNTLYLQMNSLRAEDTAVYYCARDRYSSGWDVFDYWGQGTLVTVSS
VL: B2 VL with N31S, G34A, Y49F, D70G, N92K, L96P, G100Q
B9: anti-CDH17 recombinant antibody 17F3 (human IgG1) (antibody, V domains shown)
VH: EVQLVESGGGLVKSGGSLRLSCAASGFTFSSYSLKWVRQAPGKGLEWVSSISSSSGYIYYADSVKGRFTISRDNAKNSLYLQMNSLRAEDTAMYYCARAVSTIAARPGYYYYYMDVWGKGTLVTVSS
VL: B2 VL with V15I, G28D, N31T, L33F, G34A, S53T, Q55R, S76N
B10: anti-CDH17 recombinant antibody 1H10 (human IgG1) (antibody, V domains shown)
VH: B8 VH with A23V, N28T, A49T, V51I, Q58K, N76K, Y80N, A88V
VL: B2 VL with G28D, N31S, G34A, K39Q, L47Q, N92K, L96P, G100Q

These binders were tested against cynomolgus CDH17-His tag (Acro Biosystems, catalog number CA7-C52H4) (cynomolgus) (assay: Octet BLI, antibody on AHC biosensor, His-tagged antigen 200 nM to 3.1 nM).

Going from B1 to B2, the Kd rises from 2.5 nM to 15 nM (6-fold).

Compared with B1, B2 is 7.8-fold lower in kon: 620000 M⁻¹ s⁻¹ for the first, 80000 M⁻¹ s⁻¹ for the second.

Binder B2 has a koff of 0.0012 s⁻¹.

What follows are binders tested against human CDH17 as originally expressed in cells (AsPC1, GP2d) (human, UniProt Q12864 23-832) (assay: cell-based or functional assay).

B3 and B4 are the same in “IC50 of indirect killing assay to evaluate the internalization of recombinant anti-CDH17 antibodies into AsPC1 cells” value (“IC50 of indirect killing assay” for short): 0.09 nM for the first, 0.09 nM for the second.

Compared with B5, B6 is 2.1-fold lower in “IC50 of indirect killing assay” value: 0.29 nM for the first, 0.14 nM for the second.

Going from B7 to B1, the “IC50 of indirect killing assay” value falls from 0.15 nM to 0.09 nM (1.7-fold).

First: B2
Second: B8
The “IC50 of indirect killing assay” value of the first is 25-fold lower: 0.08 nM for the first, 1.99 nM for the second.

First: B9
Second: B10
The “IC50 of indirect killing assay” value of the first is 2.4-fold lower: 0.08 nM for the first, 0.19 nM for the second.
